Laboratory results published in paper PMC2954210, “Structure of an essential bacterial protein YeaZ (TM0874) from Thermotoga maritima at 2.5 Å resolution” (Acta Crystallographica Section F: Structural Biology and …, 2009).

Molecular target: the molecule itself
Test: SEC-MALS; Superdex 200 column coupled with miniDAWN static light-scattering and Optilab refractive-index detectors; 20 mM Tris-HCl pH 7.9, 150 mM NaCl, 0.02% sodium azide

B1: YeaZ (TM0874) from Thermotoga maritima (natural protein, UniProt Q9WZX7 1-206, looked up)
chain: MNVLALDTSQRIRIGLRKGEDLFEISYTGEKKHAEILPVVVKKLLDELDLKVKDLDVVGVGIGPGGLTGLRVGIATVVGLVSPYDIPVAPLNSFEMTAKSCPADGVVLVARRARKGYHYCAVYLKDKGLNPLKEPSVVSDEELEEITKEFSPKIVLKDDLLISPAVLVEESERLFREKKTIHYYEIEPLYLQKSIAELNWEKKKRG
modifications: selenomethionine derivative
notes: YeaZ (TM0874), Thermotoga maritima, full-length protein, residues 1-206; Swiss-Prot Q9WZX7; Cloned into plasmid pMH4; In the crystal model residues 1-193 (chain A) and 0-187 (chain B) are ordered; residue 0 is the last residue of the His tag; also called TmYeaZ; His-tagged SeMet-TmYeaZ; source: E. coli GeneHogs, selenomethionine-containing medium, purified (nickel-chelating resin, Resource Q)
stoichiometry N: 2
